The record followed here is PMC10873347.

For this assay, the target named is actin (pyrene-labeled filaments). Kind of assay: pyrene-actin fluorescence quenching titration. The note with it: sites S3.

Chain of human cofilin-1 (from UniProt P23528) cofilin S3D,G4L (P23528 whole entry, looked up, stated change not applied): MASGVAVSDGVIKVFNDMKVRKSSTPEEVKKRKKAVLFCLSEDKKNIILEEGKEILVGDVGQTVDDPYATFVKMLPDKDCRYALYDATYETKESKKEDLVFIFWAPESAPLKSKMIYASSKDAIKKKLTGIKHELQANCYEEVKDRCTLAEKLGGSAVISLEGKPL
Chain of human cofilin-1 (from UniProt P23528) cofilin S3D,G4F (P23528 whole entry, looked up, stated change not applied): as above
Chain of human cofilin-1 (from UniProt P23528) cofilin S3D (P23528 whole entry, looked up, stated change not applied): as above

As for “human cofilin-1 (from UniProt P23528) cofilin S3D”, under “reference: cofilin WT”, the “other: K0.5” value is recorded as “weaker; reference 0.61”.

Turning to “human cofilin-1 (from UniProt P23528) cofilin S3D,G4F”, the “other: K0.5” value (reference: cofilin G4F) is listed as “same; reference 1.0”. As to “human cofilin-1 (from UniProt P23528) cofilin S3D,G4L”, where the note is “reference: cofilin G4L”, the “other: K0.5” value is listed as “same; reference 0.59”.
